Data: US20120020975A1

Tests used:
[1] = biological target: human PCSK9 (proprotein convertase subtilisin kexin type 9), mature form (human) (UniProt Q8NBP7); experiment: BIAcore SPR, pH 6.0
[2] = biological target: human PCSK9 (proprotein convertase subtilisin kexin type 9), mature form (human) (UniProt Q8NBP7); experiment: BIAcore SPR, pH 7.4
[3] = biological target: human PCSK9 (proprotein convertase subtilisin kexin type 9), mature form (human) (UniProt Q8NBP7); experiment: BIAcore SPR, antibody amine-coupled to CM5 chip, PCSK9 as analyte, pH 7.4
[4] = biological target: human PCSK9 (proprotein convertase subtilisin kexin type 9), mature form (human) (UniProt Q8NBP7); experiment: BIAcore solution equilibrium binding assay, free PCSK9 read on immobilized 21B12
[5] = biological target: human PCSK9 (proprotein convertase subtilisin kexin type 9), mature form (human) (UniProt Q8NBP7); experiment: KinExA solution equilibrium, PCSK9-coated beads

Kd [1] [nM] | koff [1] [s⁻¹] | kon [1] [M⁻¹ s⁻¹] | Kd [2] [nM] | koff [2] [s⁻¹] | kon [2] [M⁻¹ s⁻¹] | Kd [3] [nM] | Kd [4] [nM] | Kd [5] [nM] | Binder
0.0073 | 1.68e-05 | 2.29e+06 | 0.19 | 6.63e-06 | 34900 | 0.19 | 0.015 | – | 21B12, anti-PCSK9 huIgG4 (antibody, V domains shown) VH: QVQLVQSGAEVKKPGASVKVSCKASGYTLTSYGISWVRQAPGQGLEWMGWVSFYNGNTNYAQKLQGRGTMTTDPSTSTAYMELRSLRSDDTAVYYCARGYGMDVWGQGTTVTVSS VL: QSALTQPASVSGSPGQSITISCTGTSSDVGGYNSVSWYQQHPGKAPKLMIYEVSNRPSGVSNRFSGSKSGNTASLTISGLQAEDEADYYCNSYTSTSMVFGGGTKLTVLQ
0.029 | 7.01e-05 | 2.39e+06 | 0.47 | 4.98e-05 | 106000 | 0.47 | – | 0.015 | 16F12, anti-PCSK9 huIgG4 (antibody, V domains shown) VH: QVHLVESGGGVVQPGRSLRLSCAASGFTFNSFGMHWVRQAPGKGLEWVALIWSDGSDEYYADSVKGRFTISRDNSKNTLYLQMNSLRAEDTAVYYCARAIAALYYYYGMDVWGQGTTVTVSS VL: QSVLTQPPSVSAAPGQKVTISCSGSSSNIGNNFVSWYQQLPGTAPKLLIYDYNKRPSGIPDRFSGSKSGTSATLGITGLQTGDEADYYCGTWDSSLSAYVFGTGTRVTVLQ
